Assay results as given in patent publication US20240368668A1, “SUBSTRATES AND BIOMARKERS OF ADAMTS7” (The Broad Institute, Inc., priority 2021, published 2024).
Square brackets hold non-standard residues; d marks the D form. Ends that are not written are not given here. Met(O) = CS(=O)CC[C@H](N)C(=O)O

What follows are substances tested against T1, mouse ADAMTS7 (Mus musculus, UniProt Q68SA9) (assay: TMT10 TAILS N-terminomics, HUVEC experiment (process replicates, trypsin/AspN digest)). Settings: HUVEC TAILS HC; log fold change of N-terminal peptide, Ad-mADAMTS7 WT over Luc.
T1 construct: Full-length mouse Adamts7 1-1857 (Uniprot Q68SA9, WT or E373Q catalytic mutant); expressed in transfected cells; host or cells: Human Coronary Artery Smooth Muscle Cells (HCA-SMC, Lonza), adenovirus 50 MOI
T1 sequence (Q68SA9 221-1657): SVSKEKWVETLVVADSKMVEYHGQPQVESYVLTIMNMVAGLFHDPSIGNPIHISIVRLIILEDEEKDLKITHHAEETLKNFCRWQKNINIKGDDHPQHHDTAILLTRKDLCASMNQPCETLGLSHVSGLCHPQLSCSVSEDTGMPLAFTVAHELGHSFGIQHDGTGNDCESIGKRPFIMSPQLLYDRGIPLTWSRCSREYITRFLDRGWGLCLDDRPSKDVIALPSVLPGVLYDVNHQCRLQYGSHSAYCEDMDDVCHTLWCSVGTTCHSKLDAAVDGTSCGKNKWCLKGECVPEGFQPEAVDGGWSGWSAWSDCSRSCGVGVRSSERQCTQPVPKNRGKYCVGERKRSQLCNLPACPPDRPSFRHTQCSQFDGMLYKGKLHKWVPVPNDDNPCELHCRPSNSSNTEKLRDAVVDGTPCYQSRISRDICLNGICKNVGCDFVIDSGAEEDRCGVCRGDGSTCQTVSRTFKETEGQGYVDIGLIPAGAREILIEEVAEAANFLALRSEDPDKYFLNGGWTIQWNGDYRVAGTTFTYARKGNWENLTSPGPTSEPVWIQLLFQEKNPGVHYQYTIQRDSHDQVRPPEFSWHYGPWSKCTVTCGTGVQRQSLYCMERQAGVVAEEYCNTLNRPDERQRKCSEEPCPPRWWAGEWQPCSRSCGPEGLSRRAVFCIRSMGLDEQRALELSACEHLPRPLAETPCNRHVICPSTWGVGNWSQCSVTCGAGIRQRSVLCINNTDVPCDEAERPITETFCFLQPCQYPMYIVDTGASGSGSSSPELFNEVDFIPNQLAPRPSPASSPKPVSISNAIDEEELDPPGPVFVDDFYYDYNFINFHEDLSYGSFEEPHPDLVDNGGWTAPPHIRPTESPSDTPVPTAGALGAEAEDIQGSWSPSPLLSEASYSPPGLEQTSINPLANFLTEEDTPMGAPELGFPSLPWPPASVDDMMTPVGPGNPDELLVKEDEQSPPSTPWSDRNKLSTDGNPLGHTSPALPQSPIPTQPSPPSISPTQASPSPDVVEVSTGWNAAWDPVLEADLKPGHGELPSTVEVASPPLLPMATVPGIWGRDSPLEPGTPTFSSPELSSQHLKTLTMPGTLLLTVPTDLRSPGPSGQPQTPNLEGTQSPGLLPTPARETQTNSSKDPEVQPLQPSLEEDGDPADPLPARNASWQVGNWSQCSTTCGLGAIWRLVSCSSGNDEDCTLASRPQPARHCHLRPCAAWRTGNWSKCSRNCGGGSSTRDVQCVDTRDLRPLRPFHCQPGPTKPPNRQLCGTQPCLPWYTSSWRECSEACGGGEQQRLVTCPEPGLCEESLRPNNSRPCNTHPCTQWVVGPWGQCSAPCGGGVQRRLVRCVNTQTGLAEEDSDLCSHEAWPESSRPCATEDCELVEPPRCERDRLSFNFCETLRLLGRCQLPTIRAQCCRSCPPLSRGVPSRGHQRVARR
Format: cell-based, human
Outline: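 Full-length mouse ADAMTS7 (WT or E373Q mutant, C-terminal 3xFLAG) or luciferase was transduced via adenovirus, 50 MOI, into HCA-SMC (SMC1, SMC2) or HUVEC. SMC1: pooled media, technical triplicates 400 ug; SMC2: process triplicates 300 ug; HUVEC: process triplicates 200 ug, bFGF2 10 ng/ml.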

| logFC.mWT.over.Luc | Substance |
| --- | --- |
| 2.18 | ASMT_321 (LSSAGFR; listed as Homo sapiens) |
| 1.23 | BICD1_280 (NNDDKMNGHIHGPLVKLNGDYR; listed as Homo sapiens) |
| 1.56 | CLU_267 (FQHPPTEFIR; listed as Homo sapiens) |
| 2.94 | CTGF_173 (TVVGPALAAYR; listed as Homo sapiens) |
| 2.13 | CTGF_174 (VVGPALAAYR; listed as Homo sapiens) |
| 1.40 | FN1_1624 (LVQTAVTTIPAPT; listed as Homo sapiens) |
| 2.86 | FN1_1743 (WESPQGQVSR; listed as Homo sapiens) |
| 4.83 | LTBP2_129 (QQQPAPR; listed as Homo sapiens) |
| 2.90 | LTBP2_253 (GEGTLAR; listed as Homo sapiens) |
| 1.82 | LTBP3_164 (LSTGALPPLAPEG; listed as Homo sapiens) |
| 2.41 | LTBP3_205 (HAAFLVPLGPGQISA; listed as Homo sapiens) |
| 2.72 | LTBP3_221 (VQAPPPVVNVR; listed as Homo sapiens) |
| 1.13 | MCFD2_55 (HLEGVINKPEA; listed as Homo sapiens) |
| 2.38 | PSAP_301 (LVEPIKKH; listed as Homo sapiens) |
| 1.11 | PTBP1_376 (AAAAAGR; listed as Homo sapiens) |
| 2.11 | PZP_578 (HAHLQVAAAPQSLCALR; listed as Homo sapiens) |
| 2.27 | THBS1_630 (FGQGVEHATANK; listed as Homo sapiens) |
| 1.39 | UQCRH_76 (HGSPNNSERAMRAVGE[Met(O)]CKGPGAAR; listed as Homo sapiens) |
| 1.20 | ZYX_244 (PVSLANTQPR; listed as Homo sapiens) |
